Data taken from the RNAGym collection of RNA variant scans (doi:10.1093/molbev/msab373).

B1: Azoarcus group I ribozyme (parent)
chain: GUGCCUUGCGCCGGGAAACCACGCAAGGGAUGGUGUCAAAUUCGGCGAAACCUAAGCGCCCGCCCGGGCGUAUGGCAACGCCGAGCCAAGCUUCGGCGCCUGCGCCGAUGAAGGUGUAGAGACUAGACGGCACCCACCUAAGGCAAACGCUAUGGUGAAGGCAUAGUCCAGGGAGUGGCGAAAGUCACACAAACCGG

Variants of: B1
Test: reverse-splicing fitness (ratio to wild type); higher = more active; in vitro selection; Mg2+ level not given
Summary of the method: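 An in vitro group I ribozyme library with randomized positions was T7-transcribed and gel-purified. In triplicate, 10 pmol RNA in EPPS pH 7.5 was reacted with 50 pmoles of a 30-nt RNA substrate for 1 h at 37 °C across several added MgCl2 levels (1–48 mM), then stopped with EDTA. Products were reverse transcribed from a substrate-complementary primer, PCR-amplified and sequenced (HiSeq 4000). Fitness is a variant's read proportion after selection over that before, normalised to wild type.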

Row | Variant | reverse-splicing fitness
1 | C82G A111U A145C C169G | 0.00826
2 | C82G A111U A145C C169U | 0.0121
3 | C82G A111U A120U A145U C150U U176A | 0.00894
4 | C82G A111U A120U A145U C150U U176C | 0.0131
5 | C82G A111U A120U A145U C150U U176G | 0.00302
6 | C82G A111U A145U C150A C169G U176C | 0.0144
7 | C82G A111U A145U C150A C169G U176A | 0.014
8 | C82G A111U A145C C150G C169U U176C | 0.0102
9 | C82G A111U A145C C150G C169U U176A | 0.00891
10 | C82G A111U A145C C150G C169U U176G | 0.00634
11 | C82G A111U A145G C169U U176G | 0.00532
12 | C82G A111U A145G C169U U176A | 0.0134
13 | C82G A111U A145G C169U U176C | 0.0155
14 | C82G A111U A145C C150A C169U U176C | 0.00987
15 | C82G A111U A145C C150A C169U U176A | 0.0163
16 | C82G A111U A145C C150A C169U U176G | 0.00599
17 | C82G A111U A120U C150G C169U U176G | 0.00257
18 | C82G A111U A120U C150G C169U U176C | 0.00541
19 | C82G A111U A120U C150G C169U U176A | 0.00329
20 | C82G A111U A120U C150G U176G | 0.0026
21 | C82G A111U A120U C150G U176C | 0.00683

Row | Variant | reverse-splicing fitness
22 | C82G A111U A120U C150G U176A | 0.00389
23 | C82G A111U A120U A145U U176A | 0.0108
24 | C82G A111U A120U A145U U176G | 0.00425
25 | C82G A111U A120U A145U U176C | 0.0192
26 | C82G A111U A120U A145U C150G U176C | 0.006
27 | C82G A111U A120U A145U C150G U176A | 0.00373
28 | C82G A111U A120U A145U C150G U176G | 0.00246
29 | C82G A111U A120U C150U C169A U176A | 0.00512
30 | C82G A111U A120U C150U C169A U176C | 0.00328
31 | C82G A111U A120U C150U C169A U176G | 0.00241
32 | C82G A111U A120U A145U C150A C169G | 0.00289
33 | C82G A111U A120U A145U C150A C169A | 0.00224
34 | C82G A111U A120U A145U C150A C169U | 0.00264
35 | C82G A111U A120U C150U U176C | 0.0123
36 | C82G A111U A120U C150U U176A | 0.00931
37 | C82G A111U A120U C150U U176G | 0.00391
38 | C82G A111U A120U C150G C169G U176C | 0.00362
39 | C82G A111U A120U C150G C169G U176G | 0.003
40 | C82G A111U A120U C150G C169G U176A | 0.00513
41 | C82G A111U A145G C150U C169G U176G | 0.0058
42 | C82G A111U A145G C150U C169G U176C | 0.0191

Row | Variant | reverse-splicing fitness
43 | C82G A111U A145G C150U C169G U176A | 0.0141
44 | C82G A111U A120U A145U | 0.0429
45 | C82G A111U A120U A145G | 0.043
46 | C82G A111U A145G C150A C169G | 0.00989
47 | C82G A111U A145G C150A C169U | 0.0113
48 | C82G A111U A145G C150A C169A | 0.0112
49 | C82G A111U A120U A145G C150U C169G U176A | 0.00833
50 | C82G A111U A120U A145G C150U C169G U176G | 0.00266
51 | C82G A111U A120U A145G C150U C169G U176C | 0.00575
52 | C82G A111U A120U A145G C169U U176A | 0.00386
53 | C82G A111U A120U A145G C169U U176G | 0.00203
54 | C82G A111U A120U A145G C169U U176C | 0.004
55 | C82G A111U A120U C169G U176G | 0.00175
56 | C82G A111U A120U C169G U176A | 0.00374
57 | C82G A111U A120U C169G U176C | 0.00385
58 | C82G A111U A120U A145G C150A C169U U176G | 0.00285
59 | C82G A111U A120U A145G C150A C169U U176C | 0.00514
60 | C82G A111U A120U A145G C150A C169U U176A | 0.00402
61 | C82G A111U A145C C150A | 0.0198
62 | C82G A111U A145C C150G | 0.0354
63 | C82G A111U A145C C150U | 0.0722

Row | Variant | reverse-splicing fitness
64 | C82G A111U A120U A145G C150G C169G U176C | 0.00596
65 | C82G A111U A120U A145G C150G C169G U176A | 0.00963
66 | C82G A111U A120U A145G C150G C169G U176G | 0.00407
67 | C82G A111U A145C C150U C169A U176A | 0.0133
68 | C82G A111U A145C C150U C169A U176G | 0.00702
69 | C82G A111U A145C C150U C169A U176C | 0.00701
70 | C82G A111U A120U A145G C150G U176G | 0.00462
71 | C82G A111U A120U A145G C150G U176A | 0.00648
72 | C82G A111U A120U A145G C150G U176C | 0.00861
73 | C82G A111U A120U A145U C150U C169G U176G | 0.00218
74 | C82G A111U A120U A145U C150U C169G U176A | 0.00344
75 | C82G A111U A120U A145U C150U C169G U176C | 0.00287
76 | C82G A111U A120U A145G C169A U176C | 0.00529
77 | C82G A111U A120U A145G C169A U176A | 0.00574
78 | C82G A111U A120U A145G C169A U176G | 0.00196
79 | C82G A111U A120U A145G C150A C169A | 0.00617
80 | C82G A111U A120U A145G C150A C169G | 0.00555
81 | C82G A111U A120U A145G C150A C169U | 0.00464
82 | C82G A111U A120U C169U U176A | 0.00485
83 | C82G A111U A120U C169U U176G | 0.00182
